We go through two molecules from patent CN117186235A (SHANGHAI HUAIYUE BIOLOGICAL TECH CO LTD, dated 2023).

One experiment has as its target T1, 人4-1BB-hFc蛋白 (human, UniProt Q07011 24-186).
T1 construct: extracellular domain; The coated protein of the ELISA is called 人4-1BB-hFc蛋白; also called h4-1BB蛋白; 4-1BB重组蛋白; not shown: human IgG Fc fragment (hFc) of the pCpC vector
The experiment in a line: ELISA, plate coated with human 4-1BB-hFc at 1.0 μg/mL, HRP secondary antibody. For orientation: An ELISA detects its analyte on a solid surface through an enzyme-linked reagent.

The target in experiment [1] is T2, 人源EGFRvIII (CHO-K1细胞表面表达) (human, UniProt P00533 25-1210).
T2 construct: whole, on cells; Stably expressed on CHO-K1 cells; It is a deletion variant of EGFR and not the wild type; also called hEGFRvIII; CHO-K1-hEGFRvIII
In words: FACS on CHO-K1 cells expressing human EGFRvIII, FITC anti-human IgG Fc.

Another experiment addresses T3, 人4-1BB (CHO-K1细胞表面表达) (human, UniProt Q07011 24-255).
T3 construct: whole, on cells; Stably expressed on CHO-K1 cells for FACS; also called h4-1BB; CHO-K1-h4-1BB
In words: FACS on CHO-K1 cells expressing human 4-1BB, FITC anti-human IgG Fc.

T3 sequence (Q07011 24-255): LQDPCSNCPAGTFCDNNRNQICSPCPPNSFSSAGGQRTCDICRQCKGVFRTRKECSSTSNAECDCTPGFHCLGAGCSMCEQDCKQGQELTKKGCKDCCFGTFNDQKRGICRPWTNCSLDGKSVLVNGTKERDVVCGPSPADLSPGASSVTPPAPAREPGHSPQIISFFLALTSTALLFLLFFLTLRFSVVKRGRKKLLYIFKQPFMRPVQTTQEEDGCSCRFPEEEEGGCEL

B1: 抗4-1BB抗体PE0116全长抗体 (antibody, V domains shown)
VH: QVQLVESGGGVVQPGRSLRLSCAASGLTFSSYGMHWVRQAPGKGLEWVAVIWYDGSNKYYADSVKGRFTISRDNSKNTLYLQMNSLRAEDTAVYYCAREEVLWFGELSYNYYYGMDVWGQGTTVTVSS
VL: DIQMTQSPSSLSASVGDRVTITCRASQGISNYLAWYQQKPGKVPKLLIYAASTLQSGVPSRFSGSGSGTDFTLTISSLQPEDVATYYCQKYNSVPLTFGGGTKVEIK
notes: Fully human antibody from Harbour transgenic mice; the bispecific uses it as IgG4; also called HY0101; PE0016
Take B1: the binding result with 人4-1BB-hFc蛋白 is given as “binds”.

B2: 抗4-1BB/抗EGFRvIII双特异抗体HY1001007 (bispecific antibody, IgG4)
heavy (part 1 of 2): QVQLVESGGGVVQPGRSLRLSCAASGLTFSSYGMHWVRQAPGKGLEWVAVIWYDGSNKYYADSVKGRFTISRDNSKNTLYLQMNSLRAEDTAVYYCAREEVLWFGELSYNYYYGMDVWGQGTTVTVSS
heavy (part 2 of 2): GGGGSGGGGSGGGGSEIVLTQSPATLSLSPGERATLSCRASSSVSSSYLHWYQQKPGQAPRLLIYSTSNLAAGIPARFSGSGSGTDFTLTISSLEPEDFAVYYCQQYSGYPLTFGGGTKVEIKGGGGSGGGGSGGGGSQVQLVQSGAEVKKPGASVKVSCKASGYTFTDYNMDWVRQAPGQGLEWMGDINPNNADTIYNQKFKGRVTMTRDTSTSTVYMELSSLRSEDTAVYYCARGDYDGYYPVYYAMDYWGQGTTVTVSS
light: DIQMTQSPSSLSASVGDRVTITCRASQGISNYLAWYQQKPGKVPKLLIYAASTLQSGVPSRFSGSGSGTDFTLTISSLQPEDVATYYCQKYNSVPLTFGGGTKVEIK
notes: IgG-scFv format: PE0116 IgG4 with the 043-1 VL-VH scFv fused to the C-terminus of the heavy chain (PE0116VH-CH-043-1VLVH); also called CH-scFv(043-1VLVH)-IgG4(PE0116); not shown: human IgG4 heavy chain constant region (from the expression vector); human light chain constant region of the expression vector; kappa or lambda not
For B2, the binding result (in experiment [1]; with 人4-1BB (CHO-K1细胞表面表达)) was “binds” throughout.
